The values below come from US20260070987A1.

Numbering of substitutions follows the chain as printed. Names and notes keep the numbering of the source.

The test addresses equine FcRn (large alpha subunit p51) / equine beta-2-microglobulin complex, biotinylated (equine) (UniProt P30441). The test can be described thus: SPR (Biacore), pH 6. (Surface plasmon resonance follows binding to a sensor surface in real time, without labels.)
Chain of UniProt P30441 (P30441 21-118, one chain of several): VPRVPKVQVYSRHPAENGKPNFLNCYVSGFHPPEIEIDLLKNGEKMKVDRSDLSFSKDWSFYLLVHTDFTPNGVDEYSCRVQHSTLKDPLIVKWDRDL

B1: equine IgG1 WT (antibody, part only; not given: Variable domains, not shown: another chain or arm of the molecule)
constant: ASTTAPKVFALAPGCGTTSDSTVALGCLVSGYFPEPVKVSWNSGSLTSGVHTFPSVLQSSGFYSLSSMVTVPASTWTSETYICNVVHAASNFKVDKRIEPIPDNHQKVCDMSKCPKCPAPELLGGPSVFIFPPNPKDTLMITRTPEVTCVVVDVSQENPDVKFNWYMDGVEVRTATTRPKEEQFNSTYRVVSVLRIQHQDWLSGKEFKCKVNNQALPQPIERTITKTKGRSQEPQVYVLAPHPDELSKSKVSVTCLVKDFYPPEINIEWQSNGQPELETKYSTTQAQQDSDGSYFLYSKLSVDRNRWQQGTTFTCGVMHEALHNHYTQKNVSKNPGK
As a reminder, the Kd is a measure of binding affinity in units of concentration. Lower therefore signals tighter binding. As for B1, the Kd amounted to 22.5 nM.

B2: equine IgG1 T286D (antibody, part only; not given: variable domains, not shown: another chain or arm of the molecule)
constant: B1 constant with T174D
For the molecule B2, the Kd came to 23.9 nM.

B3: equine IgG1 Y436E (antibody, part only; not given: variable domains, not shown: another chain or arm of the molecule)
constant: B1 constant with Y326E
Consider B3, for which the Kd amounted to 33.8 nM.

B4: equine IgG1 N434K (antibody, part only; not given: variable domains, not shown: another chain or arm of the molecule)
constant: B1 constant with N324K
For the molecule B4, the Kd was determined as 17.5 nM.

B5: equine IgG1 N434I (antibody, part only; not given: variable domains, not shown: another chain or arm of the molecule)
constant: B1 constant with N324I
Molecule B5 registered a Kd of 44.3 nM. Against the preceding molecule, the Kd is about 2.5-fold higher.

B6: equine IgG1 T286E (antibody, part only; not given: variable domains, not shown: another chain or arm of the molecule)
constant: B1 constant with T174E
With B6, the Kd stood at 21.9 nM.

B7: equine IgG1 Y436F (antibody, part only; not given: variable domains, not shown: another chain or arm of the molecule)
constant: B1 constant with Y326F
B7 had a Kd of 12.5 nM.

B8: equine IgG1 Y436G (antibody, part only; not given: variable domains, not shown: another chain or arm of the molecule)
constant: B1 constant with Y326G
Regarding B8, the Kd stood at 22 nM.

B9: equine IgG1 N434P (antibody, part only; not given: variable domains, not shown: another chain or arm of the molecule)
constant: B1 constant with N324P
Take B9: the Kd was determined as 25 nM. This Kd and that of the molecule before are within 1.5-fold of each other.

B10: equine IgG1 Y436D (antibody, part only; not given: variable domains, not shown: another chain or arm of the molecule)
constant: B1 constant with Y326D
Regarding B10, the Kd turned out to be 28.4 nM.

B11: equine IgG1 Y436A (antibody, part only; not given: variable domains, not shown: another chain or arm of the molecule)
constant: B1 constant with Y326A
Regarding B11, the Kd stood at 20.4 nM.

B12: equine IgG1 N434H (antibody, part only; not given: Variable domains, not shown: another chain or arm of the molecule)
constant: B1 constant with N324H
As for B12, the Kd was determined as 4.1 nM.

B13: equine IgG1 N434Q (antibody, part only; not given: variable domains, not shown: another chain or arm of the molecule)
constant: B1 constant with N324Q
The molecule B13 gave a Kd of 12.8 nM.

B14: equine IgG1 N434T (antibody, part only; not given: variable domains, not shown: another chain or arm of the molecule)
constant: B1 constant with N324T
Turning to B14, the Kd was determined as 19.6 nM.

B15: equine IgG1 N434V (antibody, part only; not given: variable domains, not shown: another chain or arm of the molecule)
constant: B1 constant with N324V
With B15, the Kd was 31.2 nM.

B16: equine IgG1 N434S (antibody, part only; not given: variable domains, not shown: another chain or arm of the molecule)
constant: B1 constant with N324S
The molecule B16 showed a Kd of 10 nM.

B17: equine IgG1 Y436C (antibody, part only; not given: Variable domains, not shown: another chain or arm of the molecule)
constant: B1 constant with Y326C
The molecule B17 came in with a Kd of 32.8 nM.

B18: equine IgG1 N434R (antibody, part only; not given: variable domains, not shown: another chain or arm of the molecule)
constant: B1 constant with N324R
Molecule B18 gave a Kd of 14 nM.

B19: equine IgG1 N434M (antibody, part only; not given: Variable domains, not shown: another chain or arm of the molecule)
constant: B1 constant with N324M
Consider B19, for which the Kd turned out to be 29 nM.

B20: equine IgG1 N434Y (antibody, part only; not given: Variable domains, not shown: another chain or arm of the molecule)
constant: B1 constant with N324Y
Molecule B20 displayed a Kd of 2.15 nM.

B21: equine IgG1 N434G (antibody, part only; not given: variable domains, not shown: another chain or arm of the molecule)
constant: B1 constant with N324G
Consider B21, for which the Kd is 5.57 nM. This Kd is about 2.6-fold higher than that of the molecule before.
